Results taken from article PMC3068300 (Proteins, 2010).

Target: the molecule itself
Experiment: SEC

B1: Mycobacterium tuberculosis Rv2704 (natural protein)
chain: ASRTMVSSGSEFESAVGYSRAVRIGPLVVVAGTTGSGDDIAAQTRDALRRIEIALGQAGATLADVVRTRIYVTDISRWREVGEVHAQAFGKIRPVTSMVEVTALIAPGLLVEIEADAYVGSAVADRNSGAGPKDPSPAGG
Q: B1 was tested. Which “stoichiometry N” value did it give?
A: 3
